These results are taken from publication PMC3033577 (FEBS letters, 2004).

Data set [1] concerns the target T1, DnaD (Bacillus subtilis (strain 168 EMG50), UniProt P39787 1-232).
T1 sequence: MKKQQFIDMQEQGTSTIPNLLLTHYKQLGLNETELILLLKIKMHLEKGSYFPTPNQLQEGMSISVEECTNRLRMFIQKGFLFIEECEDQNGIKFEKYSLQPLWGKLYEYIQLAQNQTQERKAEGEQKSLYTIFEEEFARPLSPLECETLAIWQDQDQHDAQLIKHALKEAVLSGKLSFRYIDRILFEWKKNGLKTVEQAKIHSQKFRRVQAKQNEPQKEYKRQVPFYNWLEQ
Briefly: EMSA. In general terms: A gel shift assay detects complexes by their altered migration in electrophoresis.

For data set [2], the target named is T1, DnaD. Briefly: sedimentation velocity ultracentrifugation.
Data set [3] has as its target T2, B. stearothermophilus DnaB, main replicative ring helicase (B. stearothermophilus, UniProt Q9X4C9 1-454).
T2 sequence (looked up): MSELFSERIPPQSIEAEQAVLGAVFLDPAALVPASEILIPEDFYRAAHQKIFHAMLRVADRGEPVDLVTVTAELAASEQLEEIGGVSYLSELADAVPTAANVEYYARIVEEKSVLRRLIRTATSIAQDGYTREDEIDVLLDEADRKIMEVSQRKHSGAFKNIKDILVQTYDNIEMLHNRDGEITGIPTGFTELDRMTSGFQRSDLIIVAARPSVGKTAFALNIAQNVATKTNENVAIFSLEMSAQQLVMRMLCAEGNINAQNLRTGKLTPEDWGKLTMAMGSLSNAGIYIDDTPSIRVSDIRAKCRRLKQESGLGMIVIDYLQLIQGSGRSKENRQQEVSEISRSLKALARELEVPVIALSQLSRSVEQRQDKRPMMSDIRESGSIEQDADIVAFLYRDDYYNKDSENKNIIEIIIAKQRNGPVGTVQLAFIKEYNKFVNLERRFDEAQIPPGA
Briefly: SEC. For orientation: In gel filtration, larger molecules generally elute earlier.

Take TGCATGCCTGCAGGTCGACTCTAGAGGATCCCC (ssDNA) [33mer oligonucleotide (radiolabeled)]: the binding result in data set [1] was “binds”. As to TGCATGCCTGCAGGTCGACTCTAGAGGATCCCC (ssDNA) [33mer oligonucleotide (5'-HEX)], the binding result in data set [2] is listed as “binds”.

B1: B. subtilis DnaI, putative helicase loader (natural protein, UniProt P06567 1-311, looked up)
chain: MEPIGRSLQGVTGRPDFQKRLEQMKEKVMKDQDVQAFLKENEEVIDQKMIEKSLNKLYEYIEQSKNCSYCSEDENCNNLLEGYHPKLVVNGRSIDIEYYECPVKRKLDQQKKQQSLMKSMYIQQDLLGATFQQVDISDPSRLAMFQHVTDFLKSYNETGKGKGLYLYGKFGVGKTFMLAAIANELAEKEYSSMIVYVPEFVRELKNSLQDQTLEEKLNMVKTTPVLMLDDIGAESMTSWVRDEVIGTVLQHRMSQQLPTFFSSNFSPDELKHHFTYSQRGEKEEVKAARLMERILYLAAPIRLDGENRRHP
In the case of B1, the binding result in data set [3] is given as “binds”.
